Data on one substance can be found in patent US20160166613A1.

Test [1] concerns the target CD19-CAR-FRBl2 (CD19 chimeric antigen receptor with two tandem FRBl domains, coexpressed with iCaspase9 from iC9-CAR(19).FRBl2).
For test [2] the target is unchanged. The test can be described thus: cell-based or functional assay.
Test [3] concerns the target Her2-CAR-FRBl2 (Her2 chimeric antigen receptor with two tandem FRBl domains fused to the carboxy terminus). The test can be described thus: cell-based or functional assay.

Sequence of CD19-CAR-FRBl2 (CD19 chimeric antigen receptor with two tandem FRBl domains, coexpressed with iCaspase9 from iC9-CAR(19).FRBl2) (chain, as listed by the source mutant limits assumed): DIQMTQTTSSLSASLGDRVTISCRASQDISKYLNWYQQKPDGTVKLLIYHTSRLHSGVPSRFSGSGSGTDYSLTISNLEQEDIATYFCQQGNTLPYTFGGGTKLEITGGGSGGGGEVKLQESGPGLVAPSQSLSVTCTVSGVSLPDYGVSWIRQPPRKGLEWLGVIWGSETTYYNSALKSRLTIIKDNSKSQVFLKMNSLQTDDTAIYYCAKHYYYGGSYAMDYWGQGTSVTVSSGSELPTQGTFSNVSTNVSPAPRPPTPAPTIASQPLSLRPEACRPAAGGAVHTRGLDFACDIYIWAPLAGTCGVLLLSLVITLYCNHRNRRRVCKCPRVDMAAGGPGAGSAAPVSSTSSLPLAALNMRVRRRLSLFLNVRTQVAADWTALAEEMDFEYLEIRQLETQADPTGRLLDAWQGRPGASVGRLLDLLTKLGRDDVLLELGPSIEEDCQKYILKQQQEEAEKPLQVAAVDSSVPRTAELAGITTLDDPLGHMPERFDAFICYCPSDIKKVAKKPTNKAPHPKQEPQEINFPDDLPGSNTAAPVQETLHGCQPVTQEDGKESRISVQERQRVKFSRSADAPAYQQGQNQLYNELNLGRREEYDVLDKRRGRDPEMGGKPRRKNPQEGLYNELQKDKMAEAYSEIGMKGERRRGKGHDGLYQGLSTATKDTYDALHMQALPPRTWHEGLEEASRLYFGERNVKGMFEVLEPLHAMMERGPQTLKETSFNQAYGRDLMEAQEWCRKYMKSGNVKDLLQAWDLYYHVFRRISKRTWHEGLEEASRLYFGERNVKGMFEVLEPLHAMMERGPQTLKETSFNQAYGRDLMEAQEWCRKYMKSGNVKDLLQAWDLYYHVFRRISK
Sequence of Her2-CAR-FRBl2 (Her2 chimeric antigen receptor with two tandem FRBl domains fused to the carboxy terminus) (chain, as listed by the source mutant limits assumed): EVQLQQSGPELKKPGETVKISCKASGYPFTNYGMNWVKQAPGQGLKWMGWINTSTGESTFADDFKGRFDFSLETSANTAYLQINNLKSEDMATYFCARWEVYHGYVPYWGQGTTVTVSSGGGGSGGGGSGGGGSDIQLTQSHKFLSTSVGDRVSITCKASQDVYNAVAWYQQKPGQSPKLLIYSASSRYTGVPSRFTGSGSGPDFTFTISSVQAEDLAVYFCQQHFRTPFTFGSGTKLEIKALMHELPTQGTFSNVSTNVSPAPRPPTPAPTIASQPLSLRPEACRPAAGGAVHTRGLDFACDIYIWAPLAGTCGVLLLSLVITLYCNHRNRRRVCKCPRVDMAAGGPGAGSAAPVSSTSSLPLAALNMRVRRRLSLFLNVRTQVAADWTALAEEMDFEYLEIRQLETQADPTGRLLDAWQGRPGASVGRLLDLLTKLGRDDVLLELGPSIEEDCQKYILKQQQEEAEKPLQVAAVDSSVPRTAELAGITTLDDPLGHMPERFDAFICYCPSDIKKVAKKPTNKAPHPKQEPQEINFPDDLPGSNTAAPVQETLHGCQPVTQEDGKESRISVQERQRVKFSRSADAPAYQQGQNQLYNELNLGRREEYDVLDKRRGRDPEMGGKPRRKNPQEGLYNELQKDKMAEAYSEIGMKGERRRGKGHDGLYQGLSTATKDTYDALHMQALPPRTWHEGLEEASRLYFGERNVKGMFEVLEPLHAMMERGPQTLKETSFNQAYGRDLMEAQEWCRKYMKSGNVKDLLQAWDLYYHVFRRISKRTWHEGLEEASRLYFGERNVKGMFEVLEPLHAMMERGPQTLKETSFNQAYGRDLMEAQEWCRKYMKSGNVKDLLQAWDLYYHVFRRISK

In test [1], “inducible Caspase-9 (FKBP12v36 - SGGGSG linker - dCaspase9) (enzyme)” showed an IC50 (read off the curve): concentration of the dimerizer rapamycin (not of a protein) at half-maximal loss of SEAP activity, 293 cells expressing iC9.CAR(19)-FRBl2 of 1 nM. Moreover, the SEAP activity (constitutive SRα-SEAP reporter in transfected 293 cells, overnight with half-log dilutions of rapamycin) (% decrease of SEAP activity) in test [2] and in test [3] was 50 in each case.
